Measurements as given in publication PMC2927781 (2010).
Where no end group is shown, it is not given here. Me2 = dimethyl

Experiments:
[1] = target: T1, PHD_(Pygo2)–HD1_(BCL9) complex (human, UniProt Q9BRQ0 327-387; O00512 177-205); assay: ITC
T1 chain: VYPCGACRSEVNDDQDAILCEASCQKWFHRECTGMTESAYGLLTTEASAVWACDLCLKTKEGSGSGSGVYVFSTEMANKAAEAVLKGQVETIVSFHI

[2] = target: T2, PHD_(Pygo1)–HD1_(BCL9) complex (6×His-tagged, PHD linked to HD1) (human, UniProt Q9Y3Y4 340-400; O00512 177-205); assay: ITC
T2 chain: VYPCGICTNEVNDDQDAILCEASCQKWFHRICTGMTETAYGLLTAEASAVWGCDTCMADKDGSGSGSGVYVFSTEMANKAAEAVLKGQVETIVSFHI

B1: 15-mer H3K4me2 histone tail peptide (histone H3 tail dimethylated at lysine 4) (peptide)
chain: ARTK(Me2)QTARKSTGGKA
- Kd [1]: 2.02 µM
- Kd [2]: 3.32 µM
